Earlier results, collected in article PMC3281059.

Target: actin monomer (UniProt P68133)

- Kd: 600 nM
Substance: WCA domain WCA (from UniProt O00401)
